In the Immune Epitope Database (IEDB) one finds Kd and IC50 data, which are given here for two sequences.

The target in assay [1] is HLA-B*08:01. In words: IEDB peptide-MHC binding, purified MHC/competitive/fluorescence; filed as Kd, often an IC50 or EC50 that approximates it; ≥ and ≤ were set here for values at or beyond the usual limits of such assays. The settings on record: source organism: Entamoeba dispar SAW760.
The target in the next assay is HLA-B*44:02. Described as above. The settings on record: source organism: Entamoeba dispar SAW760.
Assay [2] addresses HLA-B*53:01. Described as above. The conditions noted are these: source organism: Entamoeba dispar SAW760.
Another assay deals with HLA-A*66:01. Described as above. The settings on record: source organism: Entamoeba dispar SAW760.
Assay [3] has as its target HLA-B*14:02. The assay is described as above. The conditions noted are these: source organism: Entamoeba dispar SAW760.
The target of assay [4] is HLA-A*01:01. The assay is described as above. The settings on record: source organism: Entamoeba dispar SAW760.
Assay [5] concerns the target HLA-A*11:01. The description is as above. The conditions noted are these: source organism: Entamoeba dispar SAW760.
Assay [6] addresses HLA-B*07:02. The assay is described as above. The settings on record: source organism: Entamoeba dispar SAW760.
A further assay deals with HLA-B*27:05. The assay is described as above. The settings on record: source organism: Entamoeba dispar SAW760.
Assay [7] addresses HLA-B*58:01. The assay is described as above. The settings on record: source organism: Entamoeba dispar SAW760.
For the next assay, the target named is HLA-A*30:02. The description is as above. The conditions noted are these: source organism: Entamoeba dispar SAW760.
In another assay the target is HLA-A*30:01. The assay is described as above. The conditions noted are these: source organism: Entamoeba dispar SAW760.
The target of another assay is HLA-A*03:01. Briefly: IEDB peptide-MHC binding, purified MHC/competitive/fluorescence; ≥ and ≤ were set here for values at or beyond the usual limits of such assays. The conditions noted are these: source organism: Rattus norvegicus.
Another assay addresses HLA-A*24:02. The description is as above. The settings on record: source organism: Rattus norvegicus.
Assay [8] deals with HLA-B*08:01. The assay is described as above. The conditions noted are these: source organism: Rattus norvegicus.
In the next assay the target is HLA-B*40:02. Described as above. The conditions noted are these: source organism: Rattus norvegicus.
In a further assay the target is HLA-A*31:01. Described as above. The settings on record: source organism: Rattus norvegicus.
The target of assay [9] is HLA-B*53:01. The description is as above. The conditions noted are these: source organism: Rattus norvegicus.
A further assay deals with HLA-B*35:01. Described as above. The settings on record: source organism: Rattus norvegicus.
Assay [10] deals with HLA-B*14:02. The assay is described as above. The conditions noted are these: source organism: Rattus norvegicus.
Assay [11] deals with HLA-A*01:01. The assay is described as above. The settings on record: source organism: Rattus norvegicus.
Assay [12] addresses HLA-A*11:01. The assay is described as above. The settings on record: source organism: Rattus norvegicus.
For another assay, the target named is HLA-A*02:01. Described as above. The conditions noted are these: source organism: Rattus norvegicus.
In a further assay the target is HLA-A*29:02. The assay is described as above. The conditions noted are these: source organism: Rattus norvegicus.
For the next assay, the target named is HLA-A*25:01. The assay is described as above. The settings on record: source organism: Rattus norvegicus.
Another assay concerns the target HLA-B*18:01. Described as above. The conditions noted are these: source organism: Rattus norvegicus.
Assay [13] deals with HLA-B*07:02. The description is as above. The settings on record: source organism: Rattus norvegicus.
The target in the next assay is HLA-A*68:02. Described as above. The settings on record: source organism: Rattus norvegicus.
The target of the next assay is HLA-B*44:03. The assay is described as above. The conditions noted are these: source organism: Rattus norvegicus.
Another assay addresses HLA-B*51:01. The assay is described as above. The settings on record: source organism: Rattus norvegicus.
The target of assay [14] is HLA-B*58:01. The description is as above. The conditions noted are these: source organism: Rattus norvegicus.
The next assay has as its target HLA-B*37:01. The assay is described as above. The conditions noted are these: source organism: Rattus norvegicus.

pIC50, pKd: −log10 of the molar value.

Regarding SQYDPKELL, the pKd in the assay with HLA-B*08:01 [1], in the assay with HLA-B*44:02, with HLA-B*53:01 [2], with HLA-A*66:01, with HLA-B*14:02 [3] and in the assay with HLA-A*01:01 [4] was no more than 5.30 each time. The negative-log Kd (pKd) in the assay with HLA-A*11:01 [5], with HLA-B*07:02 [6], with HLA-B*27:05, with HLA-B*58:01 [7], in the assay with HLA-A*30:02 and with HLA-A*30:01 was no more than 5.30 throughout.
With SLLERGQQLGV, the negative-log IC50 (pIC50) with HLA-A*03:01 is no more than 4.70; with HLA-A*24:02, 5.22; in the assay with HLA-B*08:01 [8] it was no more than 4.70; in the assay with HLA-B*40:02, no more than 4.70; with HLA-A*31:01, no more than 4.70; in the assay with HLA-B*53:01 [9], no more than 4.70. The negative-log IC50 (pIC50) with HLA-B*35:01 is no more than 4.70; with HLA-B*14:02 [10] it was no more than 4.70; in the assay with HLA-A*01:01 [11], no more than 4.70; with HLA-A*11:01 [12], no more than 4.70; with HLA-A*02:01 it was 7.73; with HLA-A*29:02, 4.75. Further, the pIC50 with HLA-A*25:01 is no more than 4.70; with HLA-B*18:01 it was no more than 4.70; with HLA-B*07:02 [13], no more than 4.70; in the assay with HLA-A*68:02, 6.04; with HLA-B*44:03, no more than 4.70; with HLA-B*51:01 it was no more than 4.70. Besides, the pIC50 with HLA-B*58:01 [14] and in the assay with HLA-B*37:01 was no more than 4.70 in each case.
